The results in this text go back to US8357518B2, “Thermostable enzymes for the hydrolysis of mannan-containing polysaccharides” (The Board of Trustees of the University of Illinois, priority 2010, dated 2013).

Substrate in the series: O=[N+]([O-])c1ccc(O[C@@H]2O[C@H](CO)[C@@H](O)[C@H](O)[C@@H]2O)cc1
Kind of series: Catalytic efficiency with pNP-linked sugars (Man5A-TM1). The settings on record: other: Man5A-TM1, pNP substrates, citrate buffer 50 mM, pH 5.5, 65° C., triplicate. The format is biochemical, Caldanaerobius polysaccharolyticus. How it is done: The plasmid constructs were then introduced into E. coli BL-21 CodonPlus (DE3) RIL competent cells by heat shock, and grown overnight in lysogeny broth (LB) agar medium supplemented with ampicillin (100 μg/mL) and chloramphenicol (50 μg/mL) at 37° C. After 12 h, single colonies were selected and used to inoculate fresh LB (10 mL) supplemented with the antibiotics above at the same concentrations, followed by culturing with aeration for 8 h at 37° C. The pre-cultures were then inoculated into fresh LB (1 L) supplemented with ampicillin and chloramphenicol and the cultures were incubated at 37° C. with vigorous aeration (225 rpm/min). […] Aliquots of eluted fractions were analyzed by sodium dodecyl sulfate-polyacrylamide gel electrophoresis (SDS-PAGE) and protein bands were visualized by staining with Coomassie brilliant blue G-250. […] The UV absorbances of the protein solutions were recorded at 280 nm using a Nanoprop 1000 from Thermo Scientific (Waltham, Mass.) and the protein concentrations were calculated using the following extinction coefficients: Man5A-TM1, ε280 nm=189 mM^−1 cm^−1; Man5A-TM2, ε280 nm=113 mM^−1 cm^−1; Man5B, ε280 nm=103 mM^−1 cm^−1.
Hydrolysis of para-nitrophenyl (pNP) linked sugars. […] The extinction coefficient of pNP at pH 5.5 was determined as 1636 M^−1 cm^−1.

B1: Caldanaerobius polysaccharolyticus endo-β-mannanase Man5A truncation mutant Man5A-TM1, SEQ ID NO: 28 (Caldanaerobius polysaccharolyticus) (protein)
chain: AGTSGDGRFHVVGNKIVDPDGKDFIIKGVNIQGYRSWEKRSVLQDVHLIADVWKFNTVRLNCFIGQNNWGEGTGANNDIDAIIKAFTAKKVVVEIDLHDTTGYPPLSNPPPAPGQPSLDQAIAWFKELAAKYKDNPYVWFNTMNEPGSSTAPLDPQWKVANEEIIKAIRSTGADNIIVVDGWSYANEGIEQNTPTVDEKRSAVLTYGQDLLNADSAKNTIFAFHNYNEGDIQKKVEDYIDRANAKGLYVFMEEYGKDYSDAAKEGVKSGLQAVMNKGAGRIYWNWDGYDLYDLTSGTGRGSGWEINKTDGSKPTNLSWVGDKIWDDNHGITPTFDDQNPKVDLALERLIANNNGFKAGDKVQFTTFLRNSGDLPIGKDSKVVVKFYVDGVQLGDPVEISGGIAVGQRIPVTSPELTVSKTDFTVKAVIDSSSTYADGAEDAVIENNWIEAAFNSTAPSSGYELVVTGIKITPDTVKEGDYVQAQVTVANQGPEATPVTNIIGWFYVNGYYYTLDDAAKSCAEQDNVTLKPGESITLSTKVKYRAAAPFNFSFVLENLYADDQNQSNNSITVNVPVKMGEGGVNMVSNPGFEDGLDSWQDWQQDMSAVPEAAHNGALGLKIGGGKAAGGGQDIPLKPNTTYILGAWAKFDSKPAGTFDVVVQYHLKDANNTYVQHILNFNETDWTYKQLLFTTPDVFGSTPQLALWKGDTSKANLYVDDVYLVEVSNLIVNGTAENGMDGWPDWGYPVSAVPEAAYGGTKGFKLSGGKQAGMGQKVALKPNTTYILGAWGKFTAKPGTYCDVIVQYHLKDANNTYVQNILRFTETDWTYKQVVFTTPDAFGSDPEFVLWKDDASNADFYADNITLVEV
With B1, the kcat/Km entry is given as “(1.4 ± 0.3) × 10^−2 mM^−1 s^−1”.
